Assay [1] addresses RAB-10 used in GST pull-downs, loaded with GTPγS or GDP (UniProt Q94148). As to the kind of experiment: GST pull-down. The conditions noted are these: GST::RAB-10 loaded with GTPγS; in vitro translated HA-tagged prey; three independent replicates; parent: est. 6.1; read off a plot.
For assay [2], the target named is EGL-8 used as bait in GST pull-downs of UNC-16 domains (Fig. 5D, 7J) (UniProt G5EBH0). Description: GST pull-down. As to conditions: GST::EGL-8 bait (x label in J' printed as GST::RAB-8); in vitro translated HA-tagged prey; three independent replicates; parent: est. 3.2; read off a plot.
UniProt G5EBH0, sequence (G5EBH0 whole entry, the tested form may be a part): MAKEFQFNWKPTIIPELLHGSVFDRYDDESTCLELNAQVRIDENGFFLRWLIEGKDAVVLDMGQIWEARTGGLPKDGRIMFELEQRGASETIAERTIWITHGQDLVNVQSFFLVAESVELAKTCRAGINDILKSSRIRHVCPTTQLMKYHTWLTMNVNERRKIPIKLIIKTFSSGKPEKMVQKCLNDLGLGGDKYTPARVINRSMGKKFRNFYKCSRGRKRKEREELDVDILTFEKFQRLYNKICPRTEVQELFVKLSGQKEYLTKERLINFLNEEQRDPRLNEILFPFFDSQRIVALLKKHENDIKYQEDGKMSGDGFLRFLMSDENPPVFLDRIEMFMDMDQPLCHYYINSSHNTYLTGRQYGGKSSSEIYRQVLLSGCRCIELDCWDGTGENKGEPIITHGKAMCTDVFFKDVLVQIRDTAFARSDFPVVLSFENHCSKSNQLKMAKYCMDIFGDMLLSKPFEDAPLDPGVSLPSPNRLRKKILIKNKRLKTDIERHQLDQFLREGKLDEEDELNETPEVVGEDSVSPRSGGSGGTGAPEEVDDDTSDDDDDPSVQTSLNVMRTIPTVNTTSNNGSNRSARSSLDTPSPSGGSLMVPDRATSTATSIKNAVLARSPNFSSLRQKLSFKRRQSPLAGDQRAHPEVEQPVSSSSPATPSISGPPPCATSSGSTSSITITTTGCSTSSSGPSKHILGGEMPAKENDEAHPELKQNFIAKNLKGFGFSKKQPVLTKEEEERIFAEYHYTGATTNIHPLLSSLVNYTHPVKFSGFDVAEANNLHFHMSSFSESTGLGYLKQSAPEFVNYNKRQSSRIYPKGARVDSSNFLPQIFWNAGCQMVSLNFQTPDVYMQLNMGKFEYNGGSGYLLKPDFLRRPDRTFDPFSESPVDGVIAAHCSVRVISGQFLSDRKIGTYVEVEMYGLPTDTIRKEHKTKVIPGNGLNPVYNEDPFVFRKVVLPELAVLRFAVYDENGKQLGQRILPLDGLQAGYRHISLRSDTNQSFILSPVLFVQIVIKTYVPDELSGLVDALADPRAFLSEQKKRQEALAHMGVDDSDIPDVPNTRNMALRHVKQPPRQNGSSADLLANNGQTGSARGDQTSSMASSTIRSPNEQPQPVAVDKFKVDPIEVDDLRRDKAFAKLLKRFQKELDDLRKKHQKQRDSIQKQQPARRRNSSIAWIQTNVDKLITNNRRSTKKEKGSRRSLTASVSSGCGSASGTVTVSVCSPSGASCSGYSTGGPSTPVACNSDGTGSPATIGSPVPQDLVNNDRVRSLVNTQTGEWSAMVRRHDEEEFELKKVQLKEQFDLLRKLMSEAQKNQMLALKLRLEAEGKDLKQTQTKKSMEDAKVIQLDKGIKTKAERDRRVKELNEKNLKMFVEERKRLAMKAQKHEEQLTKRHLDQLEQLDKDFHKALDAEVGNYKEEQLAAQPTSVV
The target in assay [3] is purified UNC-16-LZII domain fragment (260–849 aa) (C. elegans). Description: native gel or EMSA; native-PAGE of purified UNC-16-LZII domain and its L360P variant (260–849 aa); dimer formation; three independent experiments. In general terms: Mobility shift assays separate free from complexed probe on a gel.
Assay [4] has as its target T1, purified UNC-16-LZII domain fragment (260–849 aa), L360P variant.
T1 chain: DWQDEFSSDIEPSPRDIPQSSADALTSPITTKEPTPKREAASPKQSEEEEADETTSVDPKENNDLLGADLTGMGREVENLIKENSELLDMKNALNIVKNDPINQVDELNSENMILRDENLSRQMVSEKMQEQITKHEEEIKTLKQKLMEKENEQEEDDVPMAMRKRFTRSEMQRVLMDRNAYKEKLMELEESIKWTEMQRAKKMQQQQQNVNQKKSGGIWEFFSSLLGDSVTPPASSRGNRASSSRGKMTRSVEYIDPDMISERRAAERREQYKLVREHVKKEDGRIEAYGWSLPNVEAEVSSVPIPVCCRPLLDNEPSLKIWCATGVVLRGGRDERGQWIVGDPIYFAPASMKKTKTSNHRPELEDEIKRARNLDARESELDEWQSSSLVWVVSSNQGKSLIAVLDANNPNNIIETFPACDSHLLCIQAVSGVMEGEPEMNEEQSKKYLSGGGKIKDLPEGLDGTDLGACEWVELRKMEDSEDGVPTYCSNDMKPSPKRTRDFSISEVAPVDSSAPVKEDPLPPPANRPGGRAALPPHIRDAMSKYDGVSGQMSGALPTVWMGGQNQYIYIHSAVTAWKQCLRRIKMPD
Description: Native-PAGE. As to conditions: chain shown with the change; three independent experiments; P = 0.0034; parent: est. 0.86; read off a plot.

UniProt Q94148, sequence (Q94148 whole entry, the tested form may be a part): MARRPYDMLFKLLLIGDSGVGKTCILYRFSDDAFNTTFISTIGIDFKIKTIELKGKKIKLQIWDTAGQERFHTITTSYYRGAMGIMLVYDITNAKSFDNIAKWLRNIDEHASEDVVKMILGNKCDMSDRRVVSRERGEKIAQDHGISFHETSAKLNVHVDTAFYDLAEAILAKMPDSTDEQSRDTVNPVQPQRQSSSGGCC

Regarding “HA-tagged UNC-16 fragment containing the LZII domain (in vitro translated) L353A; N354A; I355A; V356A; K357A; N358A; D359A; L360A; I361A; N362A; Q363A; V364A; D365A; E366A; L367A”, the response (binding/input) in assay [1] and in assay [2] was 0.1 in each case.
As usually defined, the stoichiometry N is a count of units in the complex or per binding partner. As to “purified UNC-16-LZII domain fragment (260–849 aa) (domain or fragment)”, the stoichiometry N in assay [3] was determined as 2.
With “HA-tagged UNC-16 fragment containing the LZII domain (in vitro translated) L360P”, in assay [2], the response (binding/input) is 0.65.

B1: purified UNC-16-LZII domain fragment (260–849 aa) L360P (protein)
chain: T1 chain
Take B1: in assay [4], the other: ratio of dimer to monomer was 0.58.

(Values after article PMC11891140.)
